Data set [1] deals with wild-type HIV-1 Gag expressed from the hGag plasmid.
Data set [2] concerns the target mutant Gag of ZWt-p6.Vif-, in which the nucleocapsid sequence has been replaced with a yeast leucine zipper domain.
Data set [3] deals with Gag of HIV-1 BH10 expressed from BH10.P-.Vif- or BH10.FS-.Vif- proviral DNA, P03347.
Data set [4] concerns the target HIV-1 Vif (virion infectivity factor).

The source of these data is patent US20060002951.

B1: HA-tagged APOBEC3G deletion mutant Δ1-104 (protein)
chain: MATFLAEDPKVTLTIFVARLYYFWDPDYQEALRSLCQKRDGPRATMKIMNYDEFQHCWSKFVYSQRELFEPWNNLPKYYILLHIMLGEILRHSMDPPTFTFNFNNEPWVRGRHETYLCYEVERMHNDTWVLLNQRRGFLCNQAPHKHGFLEGRHAELCFLDVIPFWKLDLDQDYRVTCFTSWSPCFSCAQEMAKFISKNKHVSLCIFTARIYDDQGRCQEGLRTLAEAGAKISIMTYSEFKHCWDTFVDHQGCPFQPWDGLDEHSQDLSGRLRAILQNQEN
With B1, the “incorporation into Gag VLPs (APOBEC3G:Gag ratio, Western blot)” value in data set [1] is “deletion of the N-terminal 104 amino acids or the C-terminal 157-384 amino acids (See SEQ ID NO: 21) does not affect the ability of APOBEC3G to be packaged into Gag VLPs”.

B2: wild-type human APOBEC3G with a fused HA tag at the C-terminus (protein)
chain: MKPHFRNTVERMYRDTFSYNFYNRPILSRRNTVWLCYEVKTKGPSRPPLDAKIFRGQVYSELKYHPEMRFFHWFSKWRKLHRDQEYEVTWYISWSPCTKCTRDMATFLAEDPKVTLTIFVARLYYFWDPDYQEALRSLCQKRDGPRATMKIMNYDEFQHCWSKFVYSQRELFEPWNNLPKYYILLHIMLGEILRHSMDPPTFTFNFNNEPWVRGRHETYLCYEVERMHNDTWVLLNQRRGFLCNQAPHKHGFLEGRHAELCFLDVIPFWKLDLDQDYRVTCFTSWSPCFSCAQEMAKFISKNKHVSLCIFTARIYDDQGRCQEGLRTLAEAGAKISIMTYSEFKHCWDTFVDHQGCPFQPWDGLDEHSQDLSGRLRAILQNQEN
As to B2, in data set [1], the “incorporation of APOBEC3G into Gag VLPs (Western blot of VLP lysates)” value is on record as “Gag alone is sufficient among the viral proteins for facilitating APOBEC3G incorporation” and the “share of APOBEC3G in the membrane-bound fraction (sucrose floatation assay)” value is “in the presence of Gag (FIG. 5B), >90% of APOBEC3G is localized in the membrane-bound protein”. Moreover, in data set [2], the “ability of the viruses to package APOBEC3G (Western blots of viral lysates)” value is listed as “the ability of ZWt-p6.Vif- to incorporate APOBEC3G is reduced 90% compared with BH10.FS-.Vif-”; the “distribution of APOBEC3G between cytoplasm and membrane (sucrose floatation assay)” value was “the majority of APOBEC3G remains in the cytoplasm even though most Gag is found at membrane”. The “ability of the viruses to package APOBEC3G (Western blots of viral lysates)” value in data set [3] is recorded as “BH10.FS-.Vif- can package APOBEC3G as efficiently as BH10.P-”.

B3: HA-tagged APOBEC3G deletion mutant Δ246-384 (protein)
chain: MKPHFRNTVERMYRDTFSYNFYNRPILSRRNTVWLCYEVKTKGPSRPPLDAKIFRGQVYSELKYHPEMRFFHWFSKWRKLHRDQEYEVTWYISWSPCTKCTRDMATFLAEDPKVTLTIFVARLYYFWDPDYQEALRSLCQKRDGPRATMKIMNYDEFQHCWSKFVYSQRELFEPWNNLPKYYILLHIMLGEILRHSMDPPTFTFNFNNEPWVRGRHETYLCYEVERMHNDTWVLLNQRRGFLCNQ
Turning to B3, in data set [1], the “viral content relative to wild type APOBEC3G (Gag VLPs, Western blot)” value is “the viral content of these N-terminal fragments is >60% of wild type APOBEC3G”.

B4: HA-tagged APOBEC3G deletion mutant Δ157-384 (protein)
chain: MKPHFRNTVERMYRDTFSYNFYNRPILSRRNTVWLCYEVKTKGPSRPPLDAKIFRGQVYSELKYHPEMRFFHWFSKWRKLHRDQEYEVTWYISWSPCTKCTRDMATFLAEDPKVTLTIFVARLYYFWDPDYQEALRSLCQKRDGPRATMKIMNYDE
B4: in data set [1], the “incorporation into Gag VLPs (APOBEC3G:Gag ratio, Western blot)” value is recorded as “deletion of the N-terminal 104 amino acids or the C-terminal 157-384 amino acids (See SEQ ID NO: 21) does not affect the ability of APOBEC3G to be packaged into Gag VLPs” and the “viral content relative to wild type APOBEC3G (Gag VLPs, Western blot)” value is listed as “the viral content of these N-terminal fragments is >60% of wild type APOBEC3G”. In data set [4], the “cytoplasmic expression of full-length hA3G in the presence of Vif (Western blot with anti-HA)” value is recorded as “an increase in the cytoplasmic expression of full-length hA3G was detected with an increase in expression of hA3G 1-156 or hA3G 157-384, respectively”.

B5: HA-tagged APOBEC3G deletion mutant Δ309-384 (protein)
chain: MKPHFRNTVERMYRDTFSYNFYNRPILSRRNTVWLCYEVKTKGPSRPPLDAKIFRGQVYSELKYHPEMRFFHWFSKWRKLHRDQEYEVTWYISWSPCTKCTRDMATFLAEDPKVTLTIFVARLYYFWDPDYQEALRSLCQKRDGPRATMKIMNYDEFQHCWSKFVYSQRELFEPWNNLPKYYILLHIMLGEILRHSMDPPTFTFNFNNEPWVRGRHETYLCYEVERMHNDTWVLLNQRRGFLCNQAPHKHGFLEGRHAELCFLDVIPFWKLDLDQDYRVTCFTSWSPCFSCAQEMAKFISKNKHVSLC
On to B5, for which the “viral content relative to wild type APOBEC3G (Gag VLPs, Western blot)” value in data set [1] is “the viral content of these N-terminal fragments is >60% of wild type APOBEC3G”.

B6: HA-tagged APOBEC3G deletion mutant Δ1-156 (protein)
chain: MFQHCWSKFVYSQRELFEPWNNLPKYYILLHIMLGEILRHSMDPPTFTFNFNNEPWVRGRHETYLCYEVERMHNDTWVLLNQRRGFLCNQAPHKHGFLEGRHAELCFLDVIPFWKLDLDQDYRVTCFTSWSPCFSCAQEMAKFISKNKHVSLCIFTARIYDDQGRCQEGLRTLAEAGAKISIMTYSEFKHCWDTFVDHQGCPFQPWDGLDEHSQDLSGRLRAILQNQEN
B6: the “incorporation into Gag VLPs (APOBEC3G:Gag ratio, Western blot)” value in data set [1] is listed as “the deletion of the N-terminal 156 amino acids abolishes its incorporation into viruses”. Besides, the “reduction in the ability to be degraded by Vif (ratio of expression with and without Vif, Western blot)” value in data set [4] is “the deletion of the N-terminal 156 or C-terminal 157-384 amino acids results in 80% and 90% reduction in the ability of the resulting fragments to be degraded by Vif, respectively”.
